In patent EP4617284A1 (Shanghai Novamab Biopharmaceuticals Co., Ltd., dated 2025):
Several values for one entry are separate records, joined by “and”; a condition that tells them apart may be missing. Equal values may be shown once.

Key:
[1] = target: T1, recombinant human IL-13 (human, UniProt P35225 35-146, limits assumed); assay: cell-based or functional assay
[2] = target: T2, human serum albumin (human, UniProt P02768 25-609); assay: HSA binding activity, pH 5.5; method not described
T2 construct: also called HSA

[3] = target: T2, human serum albumin; assay: HSA binding activity, pH 7.4; method not described
[4] = target: T1, recombinant human IL-13; assay: cell-based or functional assay; remark: listed apart in the source
[5] = target: T1, recombinant human IL-13; assay: cell-based or functional assay; remark: listed apart in the source

T1 sequence (P35225 35-146 limits assumed): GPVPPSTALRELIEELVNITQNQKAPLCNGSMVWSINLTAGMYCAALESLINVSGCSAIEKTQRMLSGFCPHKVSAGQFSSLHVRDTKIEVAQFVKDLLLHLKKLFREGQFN

Row | IL-13 functional activity IC50 [1] | EC50 [2] | EC50 [3] | Activity IC50 (µg/mL), HEK-Blue IL-4/IL-13 cells [4] | Binder | also measured
1 | 0.0029 µg/mL | 0.0953 µg/mL | 0.0648 µg/mL | – | MY9217 (bispecific antibody, Trivalent long-acting nanobody: two anti-IL-13 VHH and one anti-HSA VHH in one chain; also called MY9286-GS20-HSA HuNb3-11-GS20-MY9293) EVQLLESGGGLVQPGGSLRLSCAASGFTFSDYTMTWVRQAPGKGLEWVSTVNPDGDSTFYRDSVKGRFTISRDNAKNTLYLQLSSLKTEDTAMYYCTKASLITWPQSPRGQGTLVTVSSGGGGSGGGGSGGGGSGGGGSEVQLQESGGGLVEPGGSLRLSCVASGFTFQHYAMSWVRQAPGKGLEWVSSISMVGGGTSYADSVKGRFTMSRDNAKNTLYLQLNSLKSEDTAMYYCVRGWHPDVPRPLGQGTLVTVSSGGGGSGGGGSGGGGSGGGGSEVQLLESGGGLVQPGESLRLSCEVSGHTHTNYCMGWFRQAPGKGLEGVAAIDTDGSTTYADSVKGRFTISKDNAKNTLYLQMNSLKPEDTAMYYCMAEDFRDEYAPEPRLSSGGYCSIGYGMDYWGKGTLVTVSSA | –
2 | 0.0024 µg/mL | 0.0648 µg/mL | 0.0467 µg/mL | – | MY9219 (bispecific antibody, Trivalent long-acting nanobody: two anti-IL-13 VHH and one anti-HSA VHH in one chain; also called HSA HuNb3-11-MY9286-GS20-MY9293-GS20) EVQLQESGGGLVEPGGSLRLSCVASGFTFQHYAMSWVRQAPGKGLEWVSSISMVGGGTSYADSVKGRFTMSRDNAKNTLYLQLNSLKSEDTAMYYCVRGWHPDVPRPLGQGTLVTVSSGGGGSGGGGSGGGGSGGGGSEVQLLESGGGLVQPGGSLRLSCAASGFTFSDYTMTWVRQAPGKGLEWVSTVNPDGDSTFYRDSVKGRFTISRDNAKNTLYLQLSSLKTEDTAMYYCTKASLITWPQSPRGQGTLVTVSSGGGGSGGGGSGGGGSGGGGSEVQLLESGGGLVQPGESLRLSCEVSGHTHTNYCMGWFRQAPGKGLEGVAAIDTDGSTTYADSVKGRFTISKDNAKNTLYLQMNSLKPEDTAMYYCMAEDFRDEYAPEPRLSSGGYCSIGYGMDYWGKGTLVTVSSA | –
3 | 0.0076 µg/mL | – | – | – | Lebrikizumab (antibody, V domains shown) VH: QVTLRESGPALVKPTQTLTLTCTVSGFSLSAYSVNWIRQPPGKALEWLAMIWGDGKIVYNSALKSRLTISKDTSKNQVVLTMTNMDPVDTATYYCAGDGYYPYAMDNWGQGSLVTVSS VL: DIVMTQSPDSLSVSLGERATINCRASKSVDSYGNSFMHWYQQKPGQPPKLLIYLASNLESGVPDRFSGSGSGTDFTLTISSLQAEDVAVYYCQQNNEDPRTFGGGTKVEIKR | Control antibody 2 IC50 (µg/mL), HEK-Blue IL-4/IL-13 cells [4]: 0.0043 µg/mL and 0.0041 µg/mL and 0.004 µg/mL
4 | – | 0.164 µg/mL | 0.11 µg/mL | – | HuNb3-11 (VHH, also called HSA HuNb3-11; Control antibody 3) VHH: EVQLQESGGGLVEPGGSLRLSCVASGFTFQHYAMSWVRQAPGKGLEWVSSISMVGGGTSYADSVKGRFTMSRDNAKNTLYLQLNSLKSEDTAMYYCVRGWHPDVPRPLGQGTLVTVSS | –
5 | – | – | – | 0.0029 µg/mL | MY9464 (VHH) EVQLLESGGGLVQPGESLRLSCEVSGHTHTNYCMGWFRQAPGKGLEGVAAIDTDGSTTYADSVKGRFTISKDNAKNTLYLQMNSLKPEDTAMYYCMAEDFRDEYAPEPRLSSGGYCSIGYGMDYWGKGTLVTVSSGGGGSGGGGSGGGGSGGGGSEVQLLESGGGLVQPGGSLRLSCAASGFTFSDYTMTWVRQAPGKGLEWVSTVNPDGDSTFYRDSVKGRFTISRDNAKNTLYLQLSSLKTEDTAMYYCTKASLITWPQSPRGQGTLVTVSS | –
6 | – | – | – | 1.75 µg/mL | MY9470 (VHH) EVQLLESGGGLVQPGESLRLSCEVSGHTHTNYCMGWFRQAPGKGLEGVAAIDTDGSTTYADSVKGRFTISKDNAKNTLYLQMNSLKPEDTAMYYCMAEDFRDEYAPEPRLSSGGYCSIGYGMDYWGKGTLVTVSSGGGGSGGGGSGGGGSGGGGSEVQLLESGGGLVQPGESLRLSCEVSGHTHTNYCMGWFRQAPGKGLEGVAAIDTDGSTTYADSVKGRFTISKDNAKNTLYLQMNSLKPEDTAMYYCMAEDFRDEYAPEPRLSSGGYCSIGYGMDYWGKGTLVTVSS | –
7 | – | – | – | – | MY9293 (VHH) VHH: EVQLLESGGGLVQPGESLRLSCEVSGHTHTNYCMGWFRQAPGKGLEGVAAIDTDGSTTYADSVKGRFTISKDNAKNTLYLQMNSLKPEDTAMYYCMAEDFRDEYAPEPRLSSGGYCSIGYGMDYWGKGTLVTVSS | Humanized nanobody IC50 (µg/mL), HEK-Blue IL-4/IL-13 cells [5]: 1.05 µg/mL
8 | – | – | – | 0.0038 µg/mL | MY9466 (VHH) VHH: EVQLLESGGGLVQPGESLRLSCEVSGHTHTNYCMGWFRQAPGKGLEGVAAIDTDGSTTYADSVKGRFTISKDNAKNTLYLQMNSLKPEDTAMYYCMAEDFRDEYAPEPRLSSGGYCSIGYGMDYWGKGTLVTVSS | –
9 | – | – | – | – | MY9286 (VHH) VHH: EVQLLESGGGLVQPGGSLRLSCAASGFTFSDYTMTWVRQAPGKGLEWVSTVNPDGDSTFYRDSVKGRFTISRDNAKNTLYLQLSSLKTEDTAMYYCTKASLITWPQSPRGQGTLVTVSS | Humanized nanobody IC50 (µg/mL), HEK-Blue IL-4/IL-13 cells [5]: 3.42 µg/mL
10 | – | – | – | 0.0014 µg/mL | MY9431 (VHH) EVQLLESGGGLVQPGGSLRLSCAASGFTFSDYTMTWVRQAPGKGLEWVSTVNPDGDSTFYRDSVKGRFTISRDNAKNTLYLQLSSLKTEDTAMYYCTKASLITWPQSPRGQGTLVTVSSGGGGSGGGGSGGGGSGGGGSEVQLLESGGGLVQPGESLRLSCEVSGHTHTNYCMGWFRQAPGKGLEGVAAIDTDGSTTYADSVKGRFTISKDNAKNTLYLQMNSLKPEDTAMYYCMAEDFRDEYAPEPRLSSGGYCSIGYGMDYWGKGTLVTVSS | –
